Reference: paper PMC5340530, “YOD1/TRAF6 association balances p62-dependent IL-1 signaling to NF-κB” (eLife, 2017)
Each block holds one binder with its values, some of them ahead of it.

Target: T1, recombinant GST-YOD1 (UniProt Q5VVQ6 1-348)
T1 construct: YOD1 (OTUD2, DUBA8); A GST-YOD1 truncation product is seen in the blots (asterisk)
Assay: pull-down; GST-YOD1 (or GST) on Glutathione Sepharose 4B; candidate protein incubated 2 hr at 4°C in assay buffer with 0,5% Triton X100; Western blot or Coomassie
Details: both partners purified

binding result: binds
B1: HIS-TRAF6 MATH (346-504) (domain or fragment, UniProt Q9Y4K3 346-504, looked up)
chain: AQQCNGIYIWKIGNFGMHLKCQEEEKPVVIHSPGFYTGKPGYKLCMRLHLQLPTAQRCANYISLFVHTMQGEYDSHLPWPFQGTIRLTILDQSEAPVRQNHEEIMDAKPELLAFQRPTIPRNPKGFGYVTFMHLEALRQRTFIKDDTLLVRCEVSTRFD
notes: also called C-terminal HIS-TRAF6 MATH; TRAF6 MATH domain

binding result: binds
B2: HIS-TRAF6 CC-MATH (310-522) (domain or fragment, UniProt Q9Y4K3 310-522, looked up)
chain: DHQIRELTAKMETQSMYVSELKRTIRTLEDKVAEIEAQQCNGIYIWKIGNFGMHLKCQEEEKPVVIHSPGFYTGKPGYKLCMRLHLQLPTAQRCANYISLFVHTMQGEYDSHLPWPFQGTIRLTILDQSEAPVRQNHEEIMDAKPELLAFQRPTIPRNPKGFGYVTFMHLEALRQRTFIKDDTLLVRCEVSTRFDMGSLRREGFQPRSTDAGV
notes: TRAF6, coiled-coil and MATH domains, residues 310-522; also called HIS-TRAF6 310–522; TRAF6 C-terminus
